Measured values from patent US20080207488A1, “Method for Detecting Peptides Comprising a Cross-B Structure” (priority 2005, published 2008).
Values belong to the molecule of their own block, whether it stands above or below them.

How the values were obtained:
[1] = tested on: Balb/c mice; assay: Immunization of Balb/c mice with ovalbumin and amyloid-like ovalbumin; assay type: in vivo; conditions: without adjuvant
Description: Eight to ten weeks old female Balb/c mice are immunized with OVA according to two immunization regimes (Central Animal Laboratories, Utrecht University, The Netherlands). Pre-immune serum was collected prior to the immunizations. In one regime two groups of five mice were subcutaneously injected five consecutive days per week, for three consecutive weeks. Doses comprised 10 μg native OVA or heat-denatured OVA for each injection. Alternatively, according to the second protocol, three groups of five mice were injected once intraperitoneally with doses comprising 5 μg nOVA, 5 μg OVA or 5 μg native OVA mixed 1:1 with complete Freund's adjuvant (CFA). Each week, blood was taken. After three weeks, a second dose was given. Incomplete Freund's adjuvant (IFA) was used instead of CFA. Blood was taken after one week after the start of the immunization. Antibody titers in sera were determined and sera were analyzed for the presence of cross-β structure conformation specific antibodies. For this purpose, nOVA was coated onto wells of 96-wells ELISA plates and incubated with dilution series of sera. Sera of the groups of five mice were pooled prior to the analyses. Plates were washed and subsequently incubated with peroxidase-conjugated rabbit anti-mouse immunoglobulins (RAMPO, P0260, DAKOCytomation, Glostrup, Denmark). Plates were subsequently developed with tetramethylbenzidine (TMB) substrate. […]

[2] = Thioflavin T fluorescence; assay type: physicochemical
Description: Fluorescence of ThT-protein/peptide adducts was measured as follows. […] Fluorescence was measured at 485 nm upon excitation at 435 nm. Background signals from buffer, buffer with ThT and protein/peptide solution without ThT were subtracted from corresponding measurements with protein solution incubated with ThT. […] Fluorescence was measured in triplicate on a Hitachi F-4500 fluorescence spectrophotometer (Ltd., Tokyo, Japan).
Formulated protein therapeutics were obtained from the local hospital pharmacy and were used as supplied by the manufacturers. […] Lyophilized therapeutics were dissolved according to the manufacturers recommendations. […] Enhancement in fluorescence of ThT and Congo red was measured with all formulated protein therapeutics. […]
To prepare structurally altered ovalbumin (OVA) with amyloid cross-β structure conformation, purified OVA (Sigma, A-7641, lot 071k7094) was heated to 85° C. […] Native OVA (nOVA) and heat-denatured OVA (dOVA) were tested in the ThT fluorescence assay and in the Plg-activation assay. In the fluorescence assay and in the Plg-activation assay, 25 and 100 μg ml^−1 nOVA and dOVA were tested, respectively. […] In the ThT-fluorescence assay 25 μg ml^−1 nMSA and alkyl-MSA were tested, and in the Plg-activation assay 100 μg ml^−1 was tested. The presence of aggregates or fibrils was analyzed using TEM. […]

[3] = target: T1, human fibronectin finger 4,5 (Fn F4,5) fragment (Homo sapiens, UniProt P02751); assay: ELISA, binding of fibronectin F4,5 to coated (mis)folded proteins; conditions: coated protein, FIG. 7D-H
T1 construct: human fibronectin finger 4,5 (Fn F4,5) fragment; made in house; host or cells: HEK293E cells, transient transfection, protein purified from the medium
T1 sequence (P02751 182-276 limits assumed): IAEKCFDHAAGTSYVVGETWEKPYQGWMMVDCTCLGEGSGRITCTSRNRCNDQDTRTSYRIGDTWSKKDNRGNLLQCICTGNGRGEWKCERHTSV
Description: (§1) The plates were blocked using Blocking reagent (Roche 1112589). A dilution series of the protein of interest was applied to the coated proteins and wells were subsequently washed using TBS-T (50 mM Tris pH 7.3, 150 mM NaCl and 0.1% Tween20). Bound protein is detected by the FLAG-tag using 1:3000 anti-FLAG-HRP (Sigma A-8592) in PBS-T, or by 1:1000 Ni-NTA-HRP (Qiagen 34530) in PBS-T. The HRP reaction Is performed using the TMB substrate (Biosource 4501103 or Tebu Bio 101TMB100-500), stopped using 10% H2SO4 and absorbance was measured at 450 nm.

[4] = tested on: human tissue-type plasminogen activator finger EGF (tPA F-EGF) fragment; assay: ELISA, binding of tPA F-EGF to coated (mis)folded proteins; conditions: coated protein, FIG. 7A, I
Sequence of human tissue-type plasminogen activator finger EGF (tPA F-EGF) fragment (P00750 39-120 limits assumed): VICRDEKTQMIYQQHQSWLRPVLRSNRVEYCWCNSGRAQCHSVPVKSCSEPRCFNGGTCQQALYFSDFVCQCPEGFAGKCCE
Description: as §1

[5] = tested on: Balb/c mice; assay: Immunization of mice with β2gpi preparations, serum binding to murine β2gpi; assay type: in vivo; conditions: 100-fold diluted sera
Description: Female BalB/C cAnNHSd (Harlan) 7-9 weeks were housed in filtertop cages in groups of 5 mice per group. After approximately one week of adjustment to the environment, pre-immune sera were drawn. On the start of the first week, mice were given either 100 μl plasma (150 μg/ml) β2-Glycoprotein 1,100 μl alkyl-β2-Glycoprotein I (150 μg/ml) or 100 μl of a mixture of 150 μg/ml of 82-Glycoprotein I with 9.33 μM cardiolipin (CL-β2gpi). This latter sample was prepared by pre-incubating 400 μg/ml of 62-GPI with 25 μM of cardiolipin vesicles for at least 10 minutes at RT after mixing the sample by pipetting; afterwards samples were diluted to 150 μg/ml. […] All dilutions were made freshly in TBS and kept on ice. Injections were given intravenously in the tail veins of the mice and given on Mondays and Fridays of the first and third week. Blood was drawn three days prior to the experiment, and on Wednesdays of week 2 and 4 by puncture of vena Saphena. Blood was collected in Easycollect tubes, with Z serum clot activator. Sera were prepared by centrifugation in a tabletop centrifuge, with a rotor diameter of 7 cm, at 3800 rpm for 10 minutes (slow start and stop) and stored at −20° C. before analysis.
In this way, it was determined whether immunizations of mice with human β2gpi elicits a humoral auto-immune response against murine β2gpi.

[6] = tested on: Balb/c mice; assay: Immunization of mice with β2gpi preparations, titers against native human β2gpi; assay type: in vivo; conditions: four injections of 15 μg antigen
Description: Female BalB/C cAnNHSd (Harlan) 7-9 weeks were housed in filtertop cages in groups of 5 mice per group. After approximately one week of adjustment to the environment, pre-immune sera were drawn. On the start of the first week, mice were given either 100 μl plasma (150 μg/ml) β2-Glycoprotein 1,100 μl alkyl-β2-Glycoprotein I (150 μg/ml) or 100 μl of a mixture of 150 μg/ml of 82-Glycoprotein I with 9.33 μM cardiolipin (CL-β2gpi). This latter sample was prepared by pre-incubating 400 μg/ml of 62-GPI with 25 μM of cardiolipin vesicles for at least 10 minutes at RT after mixing the sample by pipetting; afterwards samples were diluted to 150 μg/ml. […]
Sera were analyzed for antibodies against unmodified native (coated) β2-GPI. […] Antibody titers were determined by adding pooled sera of each experimental group (n=5) in three-fold serial dilutions (starting from 1:30, 50 μl/well) to plates coated with native human β2gpi. […] The plates were stained for approximately 5 minutes using 100 μL/well of TMB substrate (Biosource Europe, Nivelles, Belgium), the reaction was stopped with 50 μL/well of 2 M H2SO4 and read at 450 nm on a Spectramax340 microplate reader. The absorbance values were plotted against log dilution. […] For comparison, the dilution that yielded a residual absorbance after background subtraction of 0.1 was arbitrarily taken as the titer of the various sera.

- affinity of fibronectin F4,5 (detection anti-FLAG HRP) [3]: clear difference in binding affinity
- binding of tPA F-EGF [4]: Much lower binding
B1: dOVA: ovalbumin heat-denatured at 85° C., amyloid-like (protein)
chain: GSIGAASMEFCFDVFKELKVHHANENIFYCPIAIMSALAMVYLGAKDSTRTQINKVVRFDKLPGFGDSIEAQCGTSVNVHSSLRDILNQITKPNDVYSFSLASRLYAEERYPILPEYLQCVKELYRGGLEPINFQTAADQARELINSWVESQTNGIIRNVLQPSSVDSQTAMVLVNAIVFKGLWEKAFKDEDTQAMPFRVTEQESKPVQMMYQIGLFRVASMASEKMKILELPFASGTMSMLVLLPDEVSGLEQLESIINFEKLTEWTSSNVMEERKIKVYLPRMKMEEKYNLTSVLMAMGITDVFSSSANLSGISSAESLKISQAVHAAHAEINEAGREVVGSAEAGVDAASVSEEFRADHPFLFCIKHIATNAVLFFGRCVSP
- anti-nOVA antibody titers in pooled sera [1]: higher antibody titers
- ThT fluorescence enhancement of native and denatured proteins ([2]; 25 μg ml^−1): filtration through a 0.2 μm filter does not reduce the enhancement of ThT fluorescence

B2: alkyl-β2gpi: reduced and alkylated human β2-glycoprotein I (protein, UniProt P02749 20-345, looked up)
Beta-2-glycoprotein 1: GRTCPKPDDLPFSTVVPLKTFYEPGEEITYSCKPGYVSRGGMRKFICPLTGLWPINTLKCTPRVCPFAGILENGAVRYTTFEYPNTISFSCNTGFYLNGADSAKCTEEGKWSPELPVCAPIICPPPSIPTFATLRVYKPSAGNNSLYRDTAVFECLPQHAMFGNDTITCTTHGNWTKLPECREVKCPFPSRPDNGFVNYPAKPTLYYKDKATFGCHDGYSLDGPEEIECTKLGNWSAMPSCKASCKVPVKKATVVYQGERVKIQEKFKNGMLHGDKVSFFCKNKEKKCSYTEDAQCIDGTIEVPKCFKEHSSLAFWKTDASDVKPC
modifications: reduced and alkylated
notes: reduced and alkylated human β2-glycoprotein I
- titers against mouse self-β2gpi [5]: higher titers against mouse self-β2gpi
- Thioflavin T fluorescence of modified β2gpi ([2]; compared with native β2gpi): enhanced Thioflavin T fluorescence
- humoral immune response compared to native β2gpi [6]: far higher humoral immune responses
